One block for each binder: values may come before it.
Tests used:
[1] = biological target: T1, biotinylated human TROP2 antigen (human, UniProt P09758 27-274, C-terminal Avi tag sequence biotinylated); test: ELISA on human TROP2, scFv with or without MMP1 cleavage
T1 construct: extracellular domain; Extracellular domain purified in house
T1 sequence (looked up): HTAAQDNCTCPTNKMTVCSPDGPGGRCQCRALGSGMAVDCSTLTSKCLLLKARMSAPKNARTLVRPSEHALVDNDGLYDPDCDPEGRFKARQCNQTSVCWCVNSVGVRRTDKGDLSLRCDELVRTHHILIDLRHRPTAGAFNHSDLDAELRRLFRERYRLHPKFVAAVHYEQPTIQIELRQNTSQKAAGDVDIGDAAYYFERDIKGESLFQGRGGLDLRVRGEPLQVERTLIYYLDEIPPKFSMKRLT
Description: (§1) The resultant was then added to the plate comprising the human TROP2 antigen immobilized thereon at 50 μl/well. The bound scFv was detected using the HRP-labeled anti-FLAG antibody (Sigma-Aldrich) diluted to 5,000-fold with ELISA buffer.
Thereafter, the antibody with the concentration thereof being adjusted with ELISA buffer was added to the wells.

[2] = biological target: T1, biotinylated human TROP2 antigen; test: ELISA, immobilised biotinylated human TROP2, anti-FLAG-HRP, chemiluminescence; scFv pre-incubated with MMP1
Description: (§2) NeutrAvidin (Thermo Fisher Scientific) diluted to 1 μg/ml with PBS was added at 50 μl/well to a 96-well Maxi-sorp plate (Black, Nunc) and immobilized at 4° C. overnight. The plate was washed with PBS containing 0.05% (w/v) Tween-20 (BioRad) (ELISA buffer) and then blocked with Blocker Casein (Thermo Fisher Scientific). The plate was washed with ELISA buffer, the biotinylated human TROP2 antigen (Accession Number: P09758; the extracellular domain was purified by the method known to a person skilled in the art and the C-terminal Avi tag sequence was then biotinylated) diluted to 1 μg/ml with PBS was added at 50 μl/well, and the resultant was then agitated for 30 minutes at room temperature. […] The plate was washed with ELISA buffer, the SuperSignal Pico ELISA chemiluminescent substrate (Thermo Fisher Scientific) was added, and chemiluminescence 10 minutes thereafter was then assayed using a plate reader.
as §1

[3] = biological target: T1, biotinylated human TROP2 antigen; test: as above; remark: listed apart in the source
Description: as §2, §1

[4] = biological target: T1, biotinylated human TROP2 antigen; test: ELISA, immobilised biotinylated human TROP2, anti-FLAG-HRP, chemiluminescence; without MMP1
Description: as §2, §1

[5] = biological target: T1, biotinylated human TROP2 antigen; test: ELISA, immobilised biotinylated human TROP2, anti-human IgG-HRP, chemiluminescence
Description: (§3) NeutrAvidin (Thermo Fisher Scientific) diluted to 1 μg/ml with PBS was added at 50 μl/well to a 96-well Maxi-sorp plate (Black, Nunc) and immobilized at 4° C. overnight. The plate was washed with PBS containing 0.05% (w/v) Tween-20 (BioRad) (ELISA buffer) and then blocked with Blocker Casein (Thermo Fisher Scientific). The plate was washed with ELISA buffer, the biotinylated human TROP2 antigen (Accession Number: P09758; the extracellular domain was purified by the method known to a person skilled in the art and the C-terminal Avi tag sequence was then biotinylated) diluted to 1 μg/ml with PBS was added at 50 μl/well, and the resultant was then agitated for 30 minutes at room temperature. […] The plate was washed with ELISA buffer, 50 μl of the horseradish peroxidase (HRP)-labeled anti-human IgG antibody (Jackson Immuno Research Laboratories) diluted to 2,500-fold with ELISA buffer was added, and the resultant was then agitated for 30 minutes at room temperature. The plate was washed with ELISA buffer, the SuperSignal Pico ELISA chemiluminescent substrate (Thermo Fisher Scientific) was added, and chemiluminescence 10 minutes thereafter was then assayed using a plate reader.

[6] = biological target: T1, biotinylated human TROP2 antigen; test: ELISA, immobilised biotinylated human TROP2, anti-human IgG-HRP, chemiluminescence; without MMP1
Description: as §3

[7] = biological target: T1, biotinylated human TROP2 antigen; test: ELISA, immobilised biotinylated human TROP2, anti-human IgG-HRP, chemiluminescence; antibody pre-incubated with MMP1
Description: as §3

[8] = biological target: T1, biotinylated human TROP2 antigen; test: as above; remark: listed apart in the source
Description: as §3

[9] = biological target: T1, biotinylated human TROP2 antigen; test: ELISA, immobilised biotinylated human TROP2, anti-human IgG-HRP, chemiluminescence; without MMP1; remark: listed apart in the source
Description: as §3

[10] = biological target: T1, biotinylated human TROP2 antigen; test: ELISA on human TROP2, antibody with or without MMP1 cleavage
Description: as §3

[11] = biological target: T1, biotinylated human TROP2 antigen; test: ELISA on human TROP2, antibody with or without uPA cleavage
Description: as §3

[12] = biological target: T1, biotinylated human TROP2 antigen; test: ELISA, immobilised biotinylated human TROP2, anti-human IgG-HRP, chemiluminescence; antibody pre-incubated with uPA
Description: as §3

[13] = biological target: T1, biotinylated human TROP2 antigen; test: ELISA, immobilised biotinylated human TROP2, anti-human IgG-HRP, chemiluminescence; without uPA
Description: as §3

[14] = biological target: T2, biotinylated human GPRC5D amino terminal peptide (human, K(Biotin) at the C-terminus; C-terminal amide (NH2)); test: ELISA, immobilised biotinylated human GPRC5D amino terminal peptide, anti-human IgG-HRP, chemiluminescence
T2 construct: The last K carries the biotin and is an added residue as printed; also called human GPRC5D antigen; humanGPRC5D antigen
T2 peptide: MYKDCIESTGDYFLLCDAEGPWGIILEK
Description: NeutrAvidin (Thermo Fisher Scientific) diluted to 1 μg/ml with PBS was added at 50 μl/well to a 96-well Maxi-sorp plate (Black, Nunc) and immobilized at 4° C. overnight. The plate was washed with PBS (ELISA buffer) containing 0.05 (w/v) % Tween-20 (BioRad) and then blocked with Blocker Casein (Thermo Fisher Scientific). The plate was washed with ELISA buffer, the biotinylated human GPRC5D amino terminal peptide ([sequence]-K(Biotin)-NH₂ (Peptide Institute, Inc.)) diluted to 1 μg/ml with PBS was added at 50 μl/well, and the resultant was agitated for 30 minutes at room temperature. The plate was washed with ELISA buffer, the MMP-buffered antibody was added at 50 μl/well, and the resultant was then agitated for 30 minutes at room temperature. The plate was washed with ELISA buffer, 50 μl of the horseradish peroxidase (HRP)-labeled anti-human IgG antibody (Jackson Immuno Research Laboratories) diluted to 2,500-fold with ELISA buffer was added, and the resultant was then agitated for 30 minutes at room temperature. The plate was washed with ELISA buffer, the SuperSignal Pico ELISA chemiluminescent substrate (Thermo Fisher Scientific) was added, and chemiluminescence 10 minutes thereafter was then assayed using a plate reader.

[15] = biological target: T1, biotinylated human TROP2 antigen; test: ELISA, immobilised biotinylated human TROP2, anti-FLAG-HRP, chemiluminescence; without MMP1; remark: listed apart in the source
Description: as §2, §1

[16] = biological target: T1, biotinylated human TROP2 antigen; test: ELISA, immobilised biotinylated human TROP2, anti-FLAG-HRP, chemiluminescence; scFv pre-incubated with MMP1; remark: listed apart in the source
Description: as §2, §1

[17] = biological target: T1, biotinylated human TROP2 antigen; test: ELISA, immobilised biotinylated human TROP2, anti-FLAG-HRP, chemiluminescence; without MMP1; remark: listed apart in the source
Description: as §2, §1

[18] = biological target: T1, biotinylated human TROP2 antigen; test: ELISA, immobilised biotinylated human TROP2, anti-FLAG-HRP, chemiluminescence; scFv pre-incubated with MMP1; remark: listed apart in the source
Description: as §2, §1

EC50 ratio of binding (under the condition without the addition of MMP1/under the condition with the addition of MMP1) [1]: 7.9 | EC50 (read off the curve) [2]: ~8 nM
B1: MHT1001 (scFv)
scFv: AMGYLALKHPWPGLAENSGSGGGGSVLVPMAMMASGGSDVNSQVQLVQSGAEVKKPGASVKVSCKASGYTFTTAGMQWVRQAPGQGLEWMGWINTHSGVPKYAEDFKGRVTISADTSTSTAYLQLSSLKSEDTAVYYCARSGFGSSYWYFDVWGQGTLVTVSSGGGGSGGGGSGGGGSDIQMTQSPSSLSASVGDRVTITCKASQDVSTAVAWYQQKPGKAPKLLIYSASYRYTGVPSRFSGSGSGTDFTLTISSLQPEDFAVYYCQQHYITPLTFGQGTKLEIKRGAPSGDYKDDDDKGAAAHHHHHH
notes: also called positive clone MHT1001

EC50 ratio of binding (under the condition without the addition of MMP1/under the condition with the addition of MMP1) [1]: 4.3 | EC50 (read off the curve) [3]: ~3 nM | EC50 (read off the curve) [4]: 10 to 20 nM
B2: MHT1002 (scFv)
scFv: AMGYLALKHPWPGLAENSGSGGGGSVLVPMAMMASGGSDVNSDIQMTQSPSSLSASVGDRVTITCKASQDVSTAVAWYQQKPGKAPKLLIYSASYRYTGVPSRFSGSGSGTDFTLTISSLQPEDFAVYYCQQHYITPLTFGQGTKLEIKRGGGGSGGGGSGGGGSQVQLVQSGAEVKKPGASVKVSCKASGYTFTTAGMQWVRQAPGQGLEWMGWINTHSGVPKYAEDFKGRVTISADTSTSTAYLQLSSLKSEDTAVYYCARSGFGSSYWYFDVWGQGTLVTVSSGAPSGDYKDDDDKGAAAHHHHHH
notes: Mimotope peptide, MMP cleavable linker, HT1-11 scFv, FLAG tag, His tag; also called positive clone MHT1002

EC50 (read off the curve) [5]: ~0.6 nM | EC50 (read off the curve) [6]: ~0.5 nM | EC50 (read off the curve) [7]: ~0.5 nM
B3: anti-TROP2 antibody HT1-11 (antibody)
heavy: not shown
light: DIQMTQSPSSLSASVGDRVTITCKASQDVSTAVAWYQQKPGKAPKLLIYSASYRYTGVPSRFSGSGSGTDFTLTISSLQPEDFAVYYCQQHYITPLTFGQGTKLEIKRTVAAPSVFIFPPSDEQLKSGTASVVCLLNNFYPREAKVQWKVDNALQSGNSQESVTEQDSKDSTYSLSSTLTLSKADYEKHKVYACEVTHQGLSSPVTKSFNRGEC
notes: Known antibody of WO 2015/098099; Entries are called full-length

EC50 (read off the curve) [8]: ~0.3 nM | EC50 (read off the curve) [9]: ~30 nM | EC50 ratio of binding (under the condition without the addition of MMP1/under the condition with the addition of MMP1) [10]: 104
B4: anti-TROP2 masked antibody MHT1007 (antibody)
heavy: not shown
light: B3 light
notes: IgG-type; MHT1001 mimotope and MMP cleavable linker fused to the heavy chain

EC50 ratio of binding (under the condition without the addition of uPA/under the condition with the addition of uPA) [11]: 83 | EC50 (read off the curve) [12]: ~1 nM | EC50 (read off the curve) [13]: ~90 nM
B5: anti-TROP2 masked antibody MHT1009 (antibody)
heavy: not shown
light: B3 light
notes: IgG-type

EC50 (read off the curve) [14]: ~0.3 nM
B6: anti-GPRC5D antibody C3022 (antibody, V domains shown)
VH: QVQLVQSGAEVKKPGASVKVSCKASGYTFTGYYMHWVRQAPGQGLEWMGRINPNSGGTNYAQKFQGRVTMTRDTSISTAYMELSGLRSDDTAVYYCASGSVRHPWGQGTLVTVSS
VL: QPVLTQPPSASGTPGQRVTISCSGSRSNIGGNIVSWYQQFPGTAPRLLTYADNQRPSGVPDRFSGSKSGTSASLAISGLQSEDEADYYCAAWDDSLNGVVFGGGTKLTVLG
notes: Known antibody of WO 2018/147245

EC50 (read off the curve) [15]: ~5 nM | EC50 (read off the curve) [16]: ~4 nM
B7: HT1-11-scFv-HL (scFv)
scFv: ADVNSQVQLVQSGAEVKKPGASVKVSCKASGYTFTTAGMQWVRQAPGQGLEWMGWINTHSGVPKYAEDFKGRVTISADTSTSTAYLQLSSLKSEDTAVYYCARSGFGSSYWYFDVWGQGTLVTVSSGGGGSGGGGSGGGGSDIQMTQSPSSLSASVGDRVTITCKASQDVSTAVAWYQQKPGKAPKLLIYSASYRYTGVPSRFSGSGSGTDFTLTISSLQPEDFAVYYCQQHYITPLTFGQGTKLEIKRGAPSGDYKDDDDKGAAAHHHHHH
notes: No mimotope fused; expressed in E. coli, purified on Ni Sepharose; also called scFv-type anti-TROP2 antibody

EC50 (read off the curve) [17]: ~3 nM | EC50 (read off the curve) [18]: ~3 nM
B8: HT1-11-scFv-LH (scFv)
scFv: ADVNSDIQMTQSPSSLSASVGDRVTITCKASQDVSTAVAWYQQKPGKAPKLLIYSASYRYTGVPSRFSGSGSGTDFTLTISSLQPEDFAVYYCQQHYITPLTFGQGTKLEIKRGGGGSGGGGSGGGGSQVQLVQSGAEVKKPGASVKVSCKASGYTFTTAGMQWVRQAPGQGLEWMGWINTHSGVPKYAEDFKGRVTISADTSTSTAYLQLSSLKSEDTAVYYCARSGFGSSYWYFDVWGQGTLVTVSSGAPSGDYKDDDDKGAAAHHHHHH
notes: as for B7

Reference: patent US20250034274A1 (Daiichi Sankyo, published 2025)
